Sequences and labels used below:
B1: S. cerevisiae Abp1 (full length; SH3 domain 535-592 mutated) / Hua2 (parent complex)
chain 1: MALEPIDYTTHSREIDAEYLKIVRGSDPDTTWLIISPNAKKEYEPESTGSSFHDFLQLFDETKVQYGLARVSPPGSDVEKIIIIGWCPDSAPLKTRASFAANFAAVANNLFKGYHVQVTARDEDDLDENELLMKISNAAGARYSIQTSSKQQGKASTPPVKKSFTPSKSPAPVSKKEPVKTPSPAPAAKISSRVNDNNDDDDWNEPELKERDFDQAPLKPNQSSYKPIGKIDLQKVIAEEKAKEDPRLVQKPTAAGSKIDPSSDIANLKNESKLKRDSEFNSFLGTTKPPSMTESSLKNDDDKVIKGFRNEKSPAQLWAERKAKQNSGNAETKAEAPKPEVPEDEPEGEPDVKDLKSKFEGLAASEKEEEEMENKFAPPPKKSEPTIISPKPFSKPQEPVKAEEAEQPKTDYKKIGNPLPGMHIEADNEEEPEENDDDWDDDEDEAAQPPLPSRNVASGAPVQKEEPEQEEIAPSLPSRNSIPAPKQEEAPEQAPEEEIEEEAEEAAPQLPSRSSAAPPPPPRRATPEKKPKENPWATAEYDYDAAEDNELTFVENDKIINIEFVDDDWWLGELEKDGSKGLFPSNYVSLGN
chain 2: MQQTKFGKMYLDHDSVVEYSEDEIVEADRITLGYKKRLSMIENQMRHLLEDFSLDVQQIEPILADLQKYYDAFLQLLQKRNKSLQCKRSTHQPVPSPMNSQTSTNAKVNLSGKLMKFQLNSVQKFDEENILRILQNKIEFEHYFQIDKGKKQKVLLLAVYQCLNGPTRLHKVLNIEGIIHNNSIRTILGKQVSSSKWTVFLYDVKLVLLAHRQDVPNLETSKMIVRYGDLFPCALYFKDHTAY

This experiment covers variants of B1. Briefly: DHFR protein-fragment complementation in yeast (Abp1-DHFR F[1,2] x partner-DHFR F[3]), deep mutational scanning, second methotrexate selection vs reference; S. cerevisiae, DHFR-PCA selection in liquid with methotrexate at 30 C, two 72 h selections (the score uses the second); reference = the pre-selection culture.
In the case of chain 1 MALEPIDYTTHSREIDAEYLKIVRGSDPDTTWLIISPNAKKEYEPESTGSSFHDFLQLFDETKVQYGLARVSPPGSDVEKIIIIGWCPDSAPLKTRASFAANFAAVANNLFKGYHVQVTARDEDDLDENELLMKISNAAGARYSIQTSSKQQGKASTPPVKKSFTPSKSPAPVSKKEPVKTPSPAPAAKISSRVNDNNDDDDWNEPELKERDFDQAPLKPNQSSYKPIGKIDLQKVIAEEKAKEDPRLVQKPTAAGSKIDPSSDIANLKNESKLKRDSEFNSFLGTTKPPSMTESSLKNDDDKVIKGFRNEKSPAQLWAERKAKQNSGNAETKAEAPKPEVPEDEPEGEPDVKDLKSKFEGLAASEKEEEEMENKFAPPPKKSEPTIISPKPFSKPQEPVKAEEAEQPKTDYKKIGNPLPGMHIEADNEEEPEENDDDWDDDEDEAAQPPLPSRNVASGAPVQKEEPEQEEIAPSLPSRNSIPAPKQEEAPEQAPEEEIEEEAEEAAPQLPSRSSAAPPPPPRRATPEKKPKENPWATAEYDYDAAEDNELTFVENDKIINIEFVTDDWWLGELEKDGSKGLFPSNYVSLGN [chain 1 D566T], the screen value was -2.82 DMS score: mean over two replicates of log2(f_test/f_ref + 0.5)/ln 2, minus the synonymous-codon median (not a log2 ….

Take chain 1 MALEPIDYTTHSREIDAEYLKIVRGSDPDTTWLIISPNAKKEYEPESTGSSFHDFLQLFDETKVQYGLARVSPPGSDVEKIIIIGWCPDSAPLKTRASFAANFAAVANNLFKGYHVQVTARDEDDLDENELLMKISNAAGARYSIQTSSKQQGKASTPPVKKSFTPSKSPAPVSKKEPVKTPSPAPAAKISSRVNDNNDDDDWNEPELKERDFDQAPLKPNQSSYKPIGKIDLQKVIAEEKAKEDPRLVQKPTAAGSKIDPSSDIANLKNESKLKRDSEFNSFLGTTKPPSMTESSLKNDDDKVIKGFRNEKSPAQLWAERKAKQNSGNAETKAEAPKPEVPEDEPEGEPDVKDLKSKFEGLAASEKEEEEMENKFAPPPKKSEPTIISPKPFSKPQEPVKAEEAEQPKTDYKKIGNPLPGMHIEADNEEEPEENDDDWDDDEDEAAQPPLPSRNVASGAPVQKEEPEQEEIAPSLPSRNSIPAPKQEEAPEQAPEEEIEEEAEEAAPQLPSRSSAAPPPPPRRATPEKKPKENPWATAEYQYDAAEDNELTFVENDKIINIEFVDDDWWLGELEKDGSKGLFPSNYVSLGN [chain 1 D542Q]: the screen value was 0.542 DMS score: mean over two replicates of log2(f_test/f_ref + 0.5)/ln 2, minus the synonymous-codon median (not a log2 ….

For chain 1 MALEPIDYTTHSREIDAEYLKIVRGSDPDTTWLIISPNAKKEYEPESTGSSFHDFLQLFDETKVQYGLARVSPPGSDVEKIIIIGWCPDSAPLKTRASFAANFAAVANNLFKGYHVQVTARDEDDLDENELLMKISNAAGARYSIQTSSKQQGKASTPPVKKSFTPSKSPAPVSKKEPVKTPSPAPAAKISSRVNDNNDDDDWNEPELKERDFDQAPLKPNQSSYKPIGKIDLQKVIAEEKAKEDPRLVQKPTAAGSKIDPSSDIANLKNESKLKRDSEFNSFLGTTKPPSMTESSLKNDDDKVIKGFRNEKSPAQLWAERKAKQNSGNAETKAEAPKPEVPEDEPEGEPDVKDLKSKFEGLAASEKEEEEMENKFAPPPKKSEPTIISPKPFSKPQEPVKAEEAEQPKTDYKKIGNPLPGMHIEADNEEEPEENDDDWDDDEDEAAQPPLPSRNVASGAPVQKEEPEQEEIAPSLPSRNSIPAPKQEEAPEQAPEEEIEEEAEEAAPQLPSRSSAAPPPPPRRATPEKKPKENPWATAEYDYDAAEDNELTFVELDKIINIEFVDDDWWLGELEKDGSKGLFPSNYVSLGN [chain 1 N556L], the screen value is -0.482 DMS score: mean over two replicates of log2(f_test/f_ref + 0.5)/ln 2, minus the synonymous-codon median (not a log2 ….

With chain 1 MALEPIDYTTHSREIDAEYLKIVRGSDPDTTWLIISPNAKKEYEPESTGSSFHDFLQLFDETKVQYGLARVSPPGSDVEKIIIIGWCPDSAPLKTRASFAANFAAVANNLFKGYHVQVTARDEDDLDENELLMKISNAAGARYSIQTSSKQQGKASTPPVKKSFTPSKSPAPVSKKEPVKTPSPAPAAKISSRVNDNNDDDDWNEPELKERDFDQAPLKPNQSSYKPIGKIDLQKVIAEEKAKEDPRLVQKPTAAGSKIDPSSDIANLKNESKLKRDSEFNSFLGTTKPPSMTESSLKNDDDKVIKGFRNEKSPAQLWAERKAKQNSGNAETKAEAPKPEVPEDEPEGEPDVKDLKSKFEGLAASEKEEEEMENKFAPPPKKSEPTIISPKPFSKPQEPVKAEEAEQPKTDYKKIGNPLPGMHIEADNEEEPEENDDDWDDDEDEAAQPPLPSRNVASGAPVQKEEPEQEEIAPSLPSRNSIPAPKQEEAPEQAPEEEIEEEAEEAAPQLPSRSSAAPPPPPRRATPEKKPKENPWATAEYDYDAAEDNELTFVENDKIINIEFRDDDWWLGELEKDGSKGLFPSNYVSLGN [chain 1 V565R], the screen value was -2.71 DMS score: mean over two replicates of log2(f_test/f_ref + 0.5)/ln 2, minus the synonymous-codon median (not a log2 ….

As for chain 1 MALEPIDYTTHSREIDAEYLKIVRGSDPDTTWLIISPNAKKEYEPESTGSSFHDFLQLFDETKVQYGLARVSPPGSDVEKIIIIGWCPDSAPLKTRASFAANFAAVANNLFKGYHVQVTARDEDDLDENELLMKISNAAGARYSIQTSSKQQGKASTPPVKKSFTPSKSPAPVSKKEPVKTPSPAPAAKISSRVNDNNDDDDWNEPELKERDFDQAPLKPNQSSYKPIGKIDLQKVIAEEKAKEDPRLVQKPTAAGSKIDPSSDIANLKNESKLKRDSEFNSFLGTTKPPSMTESSLKNDDDKVIKGFRNEKSPAQLWAERKAKQNSGNAETKAEAPKPEVPEDEPEGEPDVKDLKSKFEGLAASEKEEEEMENKFAPPPKKSEPTIISPKPFSKPQEPVKAEEAEQPKTDYKKIGNPLPGMHIEADNEEEPEENDDDWDDDEDEAAQPPLPSRNVASGAPVQKEEPEQEEIAPSLPSRNSIPAPKQEEAPEQAPEEEIEEEAEEAAPQLPSRSSAAPPPPPRRATPEKKPKENPWATAEYDYDAAEDNELTFVENDKIINIEFVDDDWWLGELEKDGSKGLFPSNYVSLQN [chain 1 G591Q], the screen value was 0.531 DMS score: mean over two replicates of log2(f_test/f_ref + 0.5)/ln 2, minus the synonymous-codon median (not a log2 ….

The values above are taken from paper PMC7954794 (2021).
